From FireProtDB (doi:10.1093/protein/12.10.841)

Conditions: Homo sapiens; pH 2.7; Thermal; DSC; glycine 0.05 M; reversible: yes; whole UniProt chain shown

B1: Lysozyme C wild type, P61626 (protein)
chain: MKALIVLGLVLLSVTVQGKVFERCELARTLKRLGMDGYRGISLANWMCLAKWESGYNTRATNYNAGDRSTDYGIFQINSRYWCNDGKTPGAVNACHLSCSALLQDNIADAVACAKRVVRDPQGIRAWVAWRNRCQNRDVRQYVQGCGV
- Tm: 64.9 °C
- heat capacity change of unfolding: 1.58 kcal/mol/K
- unfolding enthalpy (calorimetric): 114 kcal/mol
- unfolding enthalpy (van 't Hoff): 120 kcal/mol
